Here are results for five substances from patent US20120196307.

Data set [1] concerns the target synaptotagmin-1, intact 65 kDa protein (rat) (UniProt P21707).
In data set [2] the test system is GST-synaptotagmin recombinant protein [GST: P08515].
Data set [3] deals with GST-CRMP2 recombinant protein (Kinasource, cat# SU-040) [GST: P08515].
In data set [4] the target is collapsin response mediator protein-2, intact (rat) (UniProt P47942).

Chain of synaptotagmin-1, intact 65 kDa protein (rat) (P21707 whole entry): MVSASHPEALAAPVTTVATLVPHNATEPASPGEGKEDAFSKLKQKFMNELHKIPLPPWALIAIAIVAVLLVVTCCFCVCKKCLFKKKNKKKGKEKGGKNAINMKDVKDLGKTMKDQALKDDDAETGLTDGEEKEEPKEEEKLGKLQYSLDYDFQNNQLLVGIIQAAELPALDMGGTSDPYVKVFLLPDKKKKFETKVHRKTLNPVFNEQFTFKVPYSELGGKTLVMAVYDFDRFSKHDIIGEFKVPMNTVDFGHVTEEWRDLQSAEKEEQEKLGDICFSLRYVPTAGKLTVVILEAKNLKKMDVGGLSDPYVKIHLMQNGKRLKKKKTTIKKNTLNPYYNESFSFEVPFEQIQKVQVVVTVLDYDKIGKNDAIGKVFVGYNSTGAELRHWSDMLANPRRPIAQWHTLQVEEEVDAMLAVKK
Chain of GST-synaptotagmin recombinant protein [GST: P08515] (P08515 whole entry, looked up): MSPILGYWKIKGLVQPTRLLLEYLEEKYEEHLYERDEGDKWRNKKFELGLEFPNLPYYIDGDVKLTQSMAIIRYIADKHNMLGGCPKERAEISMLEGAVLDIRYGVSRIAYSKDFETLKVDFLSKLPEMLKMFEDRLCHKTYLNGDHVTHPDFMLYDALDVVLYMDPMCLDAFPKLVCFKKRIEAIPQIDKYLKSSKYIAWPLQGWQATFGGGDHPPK
Chain of GST-CRMP2 recombinant protein (Kinasource, cat# SU-040) [GST: P08515] (P08515 whole entry, looked up): as above

As to MMP-2, in data set [1], the “in vitro protease digestion, Western blot” value is “Overall, Syt1 was relatively resistant to these proteases and under no conditions was the TBI-associated characteristic BDP-33k detected (results not shown)”.

Consider MMP-9, for which, in data set [1], the “in vitro protease digestion, Western blot” value is “Overall, Syt1 was relatively resistant to these proteases and under no conditions was the TBI-associated characteristic BDP-33k detected (results not shown)”.

Take “calpain (purified; isoform not named where the result is told)”: the “in vitro digestion of the recombinant protein, Western blot” value in data set [2] is listed as “The recombinant synaptotagmin was cleaved in vitro to a 21 kDa BDP as detected with anti-GST”. Also, in data set [3], the “in vitro digestion of the purified protein, Coomassie and Western blot” value is listed as “purified GST-CRMP-2 protein digested by calpain. The obtained cleavage fragments were used to determine the calpain cleavage site”. Also, in data set [4], the “in vitro protease digestion of naive brain lysate, Western blot” value was “in vitro calpain treatment of naive brain lysate resulted in the same fragmentation pattern observed after TBI in vivo, with the 62 kDa and 66 kDa intact CRMP-2 bands disappearing”. cathepsin B: in data set [1], the “in vitro protease digestion, Western blot” value is “Overall, Syt1 was relatively resistant to these proteases and under no conditions was the TBI-associated characteristic BDP-33k detected (results not shown)”. Still for that read-out and setting: the entry for cathepsin D is “Overall, Syt1 was relatively resistant to these proteases and under no conditions was the TBI-associated characteristic BDP-33k detected (results not shown)”.
